“And” between values parts separate entries of the source, which are not always exact repeats. Equal entries are not always repeated. Where two headings read alike, the source gives them in different places. Ends that are not written are not given here.
Legend:
[1] = target: Gtα/Giα chimera (α-subunit of the cone specific heterotrimeric G protein of European robin, chimera with Giα) (European robin (Erithacus rubecula)); test: FRET or BRET; in solution: intrinsic Trp (excitation 280 nm) to dansyl on the peptide, emission 400–550 nm; peptide and Gtα/Giα each 16.7 μM; 80 mM Hepes pH 7.4, 40 mM KCl, 150 mM NaCl, 10 mM MgCl2, 10 μM GDP; 30 min on ice
[2] = target: Gtα/Giα with a C-terminus truncated by six amino acids (European robin (Erithacus rubecula)); test: SPR; Gt-3AA or Gt-6AA immobilised on CM5 (3.1–4.2 ng/mm^2); LWO2 injected at 120 nM (Gt-3AA) or 100 nM (Gt-6AA); global fit, Langmuir 1:1 model; apparent KD; three sets each
[3] = target: Gtα/Giα with a C-terminus truncated by three amino acids (European robin (Erithacus rubecula)); test: as above
[4] = target: Gtα/Giα with a C-terminus truncated by six amino acids (European robin (Erithacus rubecula)); test: as above; remark: listed apart in the source
[5] = target: Gtα/Giα with a C-terminus truncated by three amino acids (European robin (Erithacus rubecula)); test: as above; remark: listed apart in the source
[6] = target: Gtα/Giα chimera (α-subunit of the cone specific heterotrimeric G protein of European robin, chimera with Giα) (European robin (Erithacus rubecula)); test: SPR; kinetics: Gtα/Giα immobilised on CM5 (2.6–3.4 ng/mm^2); LWO2 injected at 5 to 150 nM in random order; global fit, Langmuir 1:1 model; apparent KD from kd/ka; 12 sets; same running buffer

| Binder | decrease of dansyl fluorescence emission (FRET) on adding Gtα/Giα (relative fluorescence counts) [1] | Kd [2] [nM] | Kd [3] [nM] | Kd [4] [nM] | koff [4] [s⁻¹] | kon [4] [M⁻¹ s⁻¹] | Kd [5] [nM] | koff [5] [s⁻¹] | kon [5] [M⁻¹ s⁻¹] | Kd [6] | koff [6] [s⁻¹] | kon [6] [M⁻¹ s⁻¹] |
| --- | --- | --- | --- | --- | --- | --- | --- | --- | --- | --- | --- | --- |
| CGAGAWERWFVVCKPFGNIKFDGK-NH2 (cysteine pairing not given here; also: dansyl coupled to free amino groups) [dansylated peptide LWO2] | 14000 | – | – | – | – | – | – | – | – | – | – | – |
| CGAGAWERWFVVCKPFGNIKFDGK-NH2 (cysteine pairing not given here) [peptide LWO2 (second cytoplasmic loop of long-wavelength-sensitive opsin of European robin)] | – | 34.5 | 7.3 | 50 | 0.00093 | 18600 | 8.7 | 0.000937 | 108000 | 15.1 nM and 21.4 nM and 3 to 41 nM | 0.000812 | 53600 |
